From patent publication US20090111745A1 (DOMANTIS, published 2009)
Substitutions are numbered along the chain they refer to.

Legend:
[1] = target: T1, mouse serum albumin (mouse, UniProt P07724 25-608); assay: phage display selection on albumin (figure legend)
T1 construct: also called MSA

[2] = target: T2, rat serum albumin (rat, UniProt P02770 25-608); assay: BIACORE SPR, albumin on a CM5 chip, dAb in solution
T2 construct: also called RSA
Description: (§1) dAbs that bound serum albumin on a BIACORE chip (Biacore AB) were then further analysed to obtain information on affinity. The analysis was performed using a CM5 chip (carboxymethylated dextran matrix) that was coated with serum albumin. Flow cell 1 was an uncoated, blocked negative control, flow cell 2 was coated with HSA, flow cell 3 was coated with RSA and flow cell 4 was coated with MSA. The serum albumins were immobilised in acetate buffer pH 5.5 using the BIACORE coating wizard which was programmed to aim for 500 resonance units (RUs) of coated material. Each dAb of interest was expressed in the periplasm of E. coli on a 200 mL-500 mL scale and purified from the supernatant using batch absorption to protein A-streamline affinity resin (Amersham, UK) for the VH_{^S} and to protein L-agarose affinity resin (Affitech, Norway) for the Vκs followed by elution with glycine at pH 2.2 and buffer exchange to PBS. A range of concentrations of dAb were prepared (in the range 5 nM to 5 μM) by dilution into BIACORE HBS-EP buffer and flowed across the BIACORE chip.

[3] = target: T1, mouse serum albumin; assay: table of affinities (KD); BIACORE on serum albumin-coated chip according to Example 1;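 note: surface plasmon resonance with dAbs flowed over a chip carrying human, rat or mouse serum albumin, blocked uncoated flow cell as reference, KD from on- and off-rate curve fits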
Description: as §1

[4] = target: T3, human serum albumin (human, UniProt P02768 25-609); assay: as above
T3 construct: also called HSA; HAS
Description: as §1

[5] = target: T2, rat serum albumin; assay: as above
Description: as §1

[6] = target: T2, rat serum albumin; assay: BIACORE, RSA flow cell (Fc=3), fit of the single trace at 5n analyte, row 'Fc=3 -5' [contd.]
Description: as §1

[7] = target: T2, rat serum albumin; assay: BIACORE, RSA flow cell (Fc=3), fit of the single trace at 10n analyte, row 'Fc=3 -4' [contd.]
Description: as §1

[8] = target: T2, rat serum albumin; assay: BIACORE, RSA flow cell (Fc=3), fit of the single trace at 15n analyte, row 'Fc=3 -3' [contd.]
Description: as §1

[9] = target: T2, rat serum albumin; assay: BIACORE, RSA flow cell (Fc=3), fit of the single trace at 20n analyte, row 'Fc=3 -2' [contd.]
Description: as §1

[10] = target: T2, rat serum albumin; assay: BIACORE, RSA flow cell (Fc=3), fit of the single trace at 25n analyte, row 'Fc=3 -1' [contd.]
Description: as §1

[11] = target: T2, rat serum albumin; assay: BIACORE, RSA flow cell (Fc=3), fit of the single trace at 5n analyte, row 'Fc=3 -5'; KD cell shaded [contd.]
Description: as §1

[12] = target: T2, rat serum albumin; assay: BIACORE, RSA flow cell (Fc=3), fit of the single trace at 10n analyte, row 'Fc=3 -4'; KD cell shaded [contd.]
Description: (§2) dAbs that bound serum albumin on a BIACORE chip (Biacore AB) were then further analysed to obtain information on affinity. The analysis was performed using a CM5 chip (carboxymethylated dextran matrix) that was coated with serum albumin. Flow cell 1 was an uncoated, blocked negative control, flow cell 2 was coated with HSA, flow cell 3 was coated with RSA and flow cell 4 was coated with MSA. The serum albumins were immobilised in acetate buffer pH 5.5 using the BIACORE coating wizard which was programmed to aim for 500 resonance units (RUs) of coated material. […] A range of concentrations of dAb were prepared (in the range 5 nM to 5 μM) by dilution into BIACORE HBS-EP buffer and flowed across the BIACORE chip.

[13] = target: T2, rat serum albumin; assay: BIACORE, RSA flow cell (Fc=3), fit of the single trace at 15n analyte, row 'Fc=3 -3'; KD cell shaded [contd.]
Description: as §1

[14] = target: T2, rat serum albumin; assay: BIACORE, RSA flow cell (Fc=3), fit of the single trace at 20n analyte, row 'Fc=3 -2'; KD cell shaded [contd.]
Description: as §1

[15] = target: T2, rat serum albumin; assay: BIACORE, RSA flow cell (Fc=3), fit of the single trace at 25n analyte, row 'Fc=3 -1'; KD cell shaded [contd.]
Description: as §2

[16] = target: T3, human serum albumin; assay: BIACORE SPR, albumin on a CM5 chip, dAb in solution
Description: as §1

[17] = target: porcine serum albumin (porcine, UniProt P08835 25-607); assay: method not stated in the legend (BIACORE SPR for the other affinities)
[18] = target: T3, human serum albumin; assay: method not stated there (BIACORE SPR in Example 1); reference value given inside prophetic Example 10
[19] = target: T3, human serum albumin; assay: BIACORE, HSA flow cell (Fc=2), fit of the single trace at 125n analyte, row 'Fc=2 - 47' [contd.]
Description: as §1

[20] = target: T3, human serum albumin; assay: BIACORE, HSA flow cell (Fc=2), fit of the single trace at 250n analyte, row 'Fc=2 - 46' [contd.]
Description: as §1

[21] = target: T3, human serum albumin; assay: BIACORE, HSA flow cell (Fc=2), fit of the single trace at 500n analyte, row 'Fc=2 - 45' [contd.]
Description: as §1

[22] = target: T3, human serum albumin; assay: BIACORE, HSA flow cell (Fc=2), fit of the single trace at 1000n analyte, row 'Fc=2 - 44' [contd.]
Description: as §1

[23] = target: T3, human serum albumin; assay: BIACORE, HSA flow cell (Fc=2), fit of the single trace at 2000n analyte, row 'Fc=2 - 43' [contd.]
Description: as §1

[24] = target: T3, human serum albumin; assay: BIACORE, HSA flow cell (Fc=2), fit of the single trace at 3000n analyte, row 'Fc=2 - 42' [contd.]
Description: as §1

[25] = target: T3, human serum albumin; assay: BIACORE, HSA flow cell (Fc=2), fit of the single trace at 5000n analyte, row 'Fc=2 - 41' [contd.]
Description: as §2

[26] = target: T3, human serum albumin; assay: BIACORE, HSA flow cell (Fc=2), fit of the single trace at 62.5n analyte, row 'Fc=2 - 48' [contd.]
Description: as §1

[27] = target: T3, human serum albumin; assay: BIACORE, HSA flow cell (Fc=2), fit of the single trace at 125n analyte, row 'Fc=2 - 47'; KD cell shaded [contd.]
Description: as §1

[28] = target: T3, human serum albumin; assay: BIACORE, HSA flow cell (Fc=2), fit of the single trace at 250n analyte, row 'Fc=2 - 46'; KD cell shaded [contd.]
Description: as §1

[29] = target: T3, human serum albumin; assay: BIACORE, HSA flow cell (Fc=2), fit of the single trace at 500n analyte, row 'Fc=2 - 45'; KD cell shaded [contd.]
Description: as §1

[30] = target: T3, human serum albumin; assay: BIACORE, HSA flow cell (Fc=2), fit of the single trace at 62.5n analyte, row 'Fc=2 - 48'; KD cell shaded [contd.]
Description: as §2

[31] = target: T3, human serum albumin; assay: BIACORE, HSA flow cell (Fc=2), fit of the single trace at 1000n analyte, row 'Fc=2 - 44'; KD cell not shaded [contd.]
Description: as §1

[32] = target: T3, human serum albumin; assay: BIACORE, HSA flow cell (Fc=2), fit of the single trace at 2000n analyte, row 'Fc=2 - 43'; KD cell not shaded [contd.]
Description: as §1

[33] = target: T3, human serum albumin; assay: BIACORE, HSA flow cell (Fc=2), fit of the single trace at 3000n analyte, row 'Fc=2 - 42'; KD cell not shaded [contd.]
Description: as §1

[34] = target: T3, human serum albumin; assay: BIACORE, HSA flow cell (Fc=2), fit of the single trace at 5000n analyte, row 'Fc=2 - 41'; KD cell not shaded [contd.]
Description: as §1

Chain of porcine serum albumin (P08835 25-607 limits assumed): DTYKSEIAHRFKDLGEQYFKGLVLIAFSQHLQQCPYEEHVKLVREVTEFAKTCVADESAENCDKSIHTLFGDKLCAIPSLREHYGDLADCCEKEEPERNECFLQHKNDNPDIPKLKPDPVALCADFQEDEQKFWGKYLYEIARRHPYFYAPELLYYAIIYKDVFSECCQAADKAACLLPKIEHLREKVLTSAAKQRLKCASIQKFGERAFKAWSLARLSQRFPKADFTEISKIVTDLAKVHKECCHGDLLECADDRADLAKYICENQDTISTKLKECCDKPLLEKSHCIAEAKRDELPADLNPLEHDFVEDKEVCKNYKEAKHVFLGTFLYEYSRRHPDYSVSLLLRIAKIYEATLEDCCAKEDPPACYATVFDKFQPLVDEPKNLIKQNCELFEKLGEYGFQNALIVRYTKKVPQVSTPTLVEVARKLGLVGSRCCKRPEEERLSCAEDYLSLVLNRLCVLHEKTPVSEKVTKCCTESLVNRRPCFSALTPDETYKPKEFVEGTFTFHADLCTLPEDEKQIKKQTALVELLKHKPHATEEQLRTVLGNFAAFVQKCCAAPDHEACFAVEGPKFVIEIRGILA

B1: DOM7m-12 (other)
VL: DIQMTQSPSSLSASVGDRVTITCRASQSIFRHLKWYQQKPGKAPKLLIYAASRLQSGVPSRFSGSGSGTDFTLTISSLQPEDFATYYCQQVALYPKTFGQGTKVEIKR
notes: also called MSA 12
[1]
  binding result: binds

B2: DOM7r-1 (other)
VL: DIQTTQSPSSLSASVGDRVTITCRASQYIGRYLRWYQQKPGKAPKLLIYDSSVLQSGVPSRFSGSGSGTDFTLTISSLQPEDFATYYCQQRYRMPYTFGQGTRVEIKR
[2]
  Kd: 0.01 to 0.1 µM
[3]
  binding result: no binding
[4]
  binding result: no binding
[5]
  Kd: 0.015 µM
[6]
  Ka: 6.12e+07 M⁻¹
  koff: 0.0316 s⁻¹
  kon: 1.93e+06 M⁻¹ s⁻¹
[7]
  Ka: 9.07e+07 M⁻¹
  koff: 0.0316 s⁻¹
  kon: 2.87e+06 M⁻¹ s⁻¹
[8]
  Ka: 7.62e+07 M⁻¹
  koff: 0.0331 s⁻¹
  kon: 2.52e+06 M⁻¹ s⁻¹
[9]
  Ka: 8.41e+07 M⁻¹
  koff: 0.0344 s⁻¹
  kon: 2.89e+06 M⁻¹ s⁻¹
[10]
  Ka: 9.35e+07 M⁻¹
  koff: 0.0345 s⁻¹
  kon: 3.23e+06 M⁻¹ s⁻¹
[11]
  Kd: 0.0163 µM
[12]
  Kd: 0.011 µM
[13]
  Kd: 0.0131 µM
[14]
  Kd: 0.0119 µM
[15]
  Kd: 0.0107 µM

B3: DOM7h-8 (other)
VL: DIQMTQSPSSLSASVGDRVTITCRASQSISSYLNWYQQKPGKAPKLLIYRNSPLQSGVPSRFSGSGSGTDFTLTISSLQPEDFATYYCQQTYRVPPTFGQGTKVEIKR
[16]
  Kd: 0.01 to 0.1 µM
[2]
  Kd: 0.1 to 0.5 µM
[17]
  Kd: 0.06 µM
[3]
  Kd: 0.2 µM
[5]
  Kd: 0.12 µM
[18]
  Kd: 0.07 µM

B4: DOM7h-7 (other)
VL: B3 VL with P53Q, Y92F, R93A
[16]
  Kd: 0.1 to 0.5 µM
[3]
  Kd: > 5 µM
[4]
  Kd: 0.4 µM
[5]
  Kd: > 5 µM
[19]
  Ka: 1.51e+06 M⁻¹
  koff: 0.0946 s⁻¹
  kon: 143000 M⁻¹ s⁻¹
[20]
  Ka: 2.83e+06 M⁻¹
  koff: 0.0998 s⁻¹
  kon: 283000 M⁻¹ s⁻¹
[21]
  Ka: 2.93e+06 M⁻¹
  koff: 0.103 s⁻¹
  kon: 302000 M⁻¹ s⁻¹
[22]
  Ka: 5.93e+06 M⁻¹
  koff: 0.105 s⁻¹
  kon: 623000 M⁻¹ s⁻¹
[23]
  Ka: 2.33e+06 M⁻¹
  koff: 0.108 s⁻¹
  kon: 251000 M⁻¹ s⁻¹
[24]
  Ka: 22100 M⁻¹
  koff: 0.106 s⁻¹
  kon: 2350 M⁻¹ s⁻¹
[25]
  koff: 0.107 s⁻¹
[26]
  Ka: 5.01e+06 M⁻¹
  koff: 0.1 s⁻¹
  kon: 501000 M⁻¹ s⁻¹
[27]
  Kd: 0.662 µM
[28]
  Kd: 0.353 µM
[29]
  Kd: 0.341 µM
[30]
  Kd: 0.2 µM
[31]
  Kd: 0.169 µM
[32]
  Kd: 0.43 µM
[33]
  Kd: 45.1 µM
[34]
  Kd: 9710 µM
